The text below walks through data of US20050282739A1.

By % Inhibition is commonly meant the relative decrease from the control value, in per cent.

B1: metallopeptide 11-1 (peptide)
peptide: [dF]QWAVCHL-NH2
modifications: bridge (positions not given here) via ReOCl3(PPh3)2; also: oxorhenium(V) N3S1 tetradentate complex at Cys 6
B2: metallopeptide 11-3 (peptide)
peptide: [dF]QWAVC-NH2
modifications: bridge (positions not given here) via ReOCl3(PPh3)2; also: oxorhenium(V) N3S1 tetradentate complex at Cys 6
B3: metallopeptide 12-6 (peptide)
peptide: [dF]QWCVHLL-NH2
modifications: bridge (positions not given here) via ReOCl3(PPh3)2; also: oxorhenium(V) N3S1 tetradentate complex at Cys 4
B4: metallopeptide 9-7 (peptide)
peptide: [dF]QCAVGHLL-NH2
modifications: not fully specified (bridges); printed as D-Phe-Gln-Cys-Ala-Val-Gly-His-Leu-Leu-NH2; also: Re(V)=O complexed at Cys (N3S1 chelate)
B5: metallopeptide 9-3 (peptide)
peptide: [dF]QWAVGCLL-NH2
modifications: not fully specified (bridges); printed as D-Phe-Gln-Trp-Ala-Val-Gly-Cys-Leu-Leu-NH2; also: Re(V)=O chelate (N3S1) at Cys7
B6: metallopeptide 12-1 (peptide)
peptide: [dF]QWVCGHLL-NH2
modifications: bridge (positions not given here) via ReOCl3(PPh3)2; also: oxorhenium(V) N3S1 tetradentate complex at Cys 5
B7: metallopeptide 12-3 (peptide)
peptide: [dF]QWVCVHLL-NH2
modifications: bridge (positions not given here) via ReOCl3(PPh3)2; also: oxorhenium(V) N3S1 tetradentate complex at Cys 5
B8: metallopeptide 10-5 (peptide)
peptide: [dF]Q[dW]AVCHLL-NH2
modifications: bridge (positions not given here) via ReOCl3(PPh3)2; also: oxorhenium(V) N3S1 tetradentate complex at Cys 6
B9: metallopeptide 10-3 (peptide)
peptide: [dF]QWA[dV]CHLL-NH2
modifications: bridge (positions not given here) via ReOCl3(PPh3)2; also: oxorhenium(V) N3S1 tetradentate complex at Cys 6
B10: metallopeptide 9-6 (peptide)
peptide: [dF]QWCVGHLL-NH2
modifications: not fully specified (bridges); printed as D-Phe-Gln-Trp-Cys-Val-Gly-His-Leu-Leu-NH2; also: Re(V)=O complexed at Cys (N3S1 chelate)
B11: metallopeptide 11-2 (peptide)
peptide: [dF]QWAVCH-NH2
modifications: bridge (positions not given here) via ReOCl3(PPh3)2; also: oxorhenium(V) N3S1 tetradentate complex at Cys 6
B12: metallopeptide 9-2 (peptide)
peptide: [dF]QWAVGHCL-NH2
modifications: not fully specified (bridges); printed as D-Phe-Gln-Trp-Ala-Val-Gly-His-Cys-Leu-NH2; also: Re(V)=O chelate (N3S1) at Cys8
B13: metallopeptide 10-1 (peptide)
peptide: [dF]QWAVC[dH]LL-NH2
modifications: bridge (positions not given here) via ReOCl3(PPh3)2; also: oxorhenium(V) N3S1 tetradentate complex at Cys 6
B14: metallopeptide 8-7 (peptide)
peptide: [dF]QWCAVGHLL-NH2
modifications: not fully specified (bridges); printed as D-Phe-Gln-Trp-Cys-Ala-Val-Gly-His-Leu-Leu-NH2; also: oxorhenium(V) N3S1 tetradentate complex at Cys 4
B15: metallopeptide 9-5 (peptide)
peptide: [dF]QWACGHLL-NH2
modifications: not fully specified (bridges); printed as D-Phe-Gln-Trp-Ala-Cys-Gly-His-Leu-Leu-NH2; also: Re(V)=O complexed at Cys (N3S1 chelate)
B16: metallopeptide 10-4 (peptide)
peptide: [dF]QW[dA]VCHLL-NH2
modifications: bridge (positions not given here) via ReOCl3(PPh3)2; also: oxorhenium(V) N3S1 tetradentate complex at Cys 6
B17: metallopeptide 12-2 (peptide)
peptide: [dF]QWACVHLL-NH2
modifications: bridge (positions not given here) via ReOCl3(PPh3)2; also: oxorhenium(V) N3S1 tetradentate complex at Cys 5
B18: metallopeptide 12-4 (peptide)
peptide: [dF]QWVCHLL-NH2
modifications: bridge (positions not given here) via ReOCl3(PPh3)2; also: oxorhenium(V) N3S1 tetradentate complex at Cys 5
B19: metallopeptide 9-4 (peptide)
peptide: [dF]QWAVCHLL-NH2
modifications: not fully specified (bridges); printed as D-Phe-Gln-Trp-Ala-Val-Cys-His-Leu-Leu-NH2; also: Re(V)=O complexed at Cys (N3S1 chelate)
B20: metallopeptide 8-8 (peptide)
peptide: [dF]QCWAVGHLL-NH2
modifications: not fully specified (bridges); printed as D-Phe-Gln-Cys-Trp-Ala-Val-Gly-His-Leu-Leu-NH2; also: Re(V)=O chelate (N3S1) at Cys3
B21: metallopeptide 4-10 (peptide)
peptide: YVC[Nle]GHFRWDRF-NH2
modifications: bridge (positions not given here); not fully specified (bridges); printed as Tyr-Val-Cys-Nle-Gly-His-Phe-Arg-Trp-Asp-Arg-Phe-NH2.; also: oxorhenium(V) N3S1 complex
B22: metallopeptide 4-8 (peptide)
peptide: YV[Nle]GCHFRWDRF-NH2
modifications: also: oxorhenium(V) N3S1 chelate: C5 SG + backbone N of X3, G4, C5, bridge at 5 via Re(V)=O, other end not in the chain

Square brackets hold non-standard residues; d marks the D form. Ends that are not written are not given here. Nle = CCCC[C@H](N)C(=O)O

The target in one experiment is bombesin receptor of rat brain membranes (rat). As to the kind of experiment: 125I-Bombesin competition, rat brain membranes.
On to WAVCHL-NH2 (also: bridge at 4 via oxorhenium(V) N3S1 chelate, other end not in the chain) [metallopeptide 11-8], for which the % Inhibition worked out at 13%.
As to B1, the % Inhibition was 98%.
With WAVC-NH2 (also: bridge at 4 via oxorhenium(V) N3S1 chelate, other end not in the chain) [metallopeptide 11-14], the % Inhibition came to 8%.
On to B2, for which the % Inhibition is -81%.
For B3, the % Inhibition stood at 10%.
For QWAVCHLL-NH2 (also: bridge at 5 via oxorhenium(V) N3S1 chelate, other end not in the chain) [metallopeptide 11-4], the % Inhibition stood at 25%.
Turning to AVCHL-NH2 (also: bridge at 3 via oxorhenium(V) N3S1 chelate, other end not in the chain) [metallopeptide 11-9], the % Inhibition turned out to be 7%.
Turning to QWAVCHL-NH2 (also: bridge at 5 via oxorhenium(V) N3S1 chelate, other end not in the chain) [metallopeptide 11-7], the % Inhibition is 5%.
On to QWAVC-NH2 (also: bridge at 5 via oxorhenium(V) N3S1 chelate, other end not in the chain) [metallopeptide 11-13], for which the % Inhibition was -50%.
Take B4: the % Inhibition worked out at 19%.
For the molecule B5, the % Inhibition was found to be 70%.
Still for that read-out and setting: the figure for B6 is 2%.
On the same count and under the same terms, the figure for B7 is 14%.
In the case of AVCHLL-NH2 (also: bridge at 3 via oxorhenium(V) N3S1 chelate, other end not in the chain) [metallopeptide 11-6], the % Inhibition was 6%.
On to B8, for which the % Inhibition was determined as 6%.
For the molecule B9, the % Inhibition came out at 7%.
Still for that read-out and setting: the figure for B10 is 43%; for B11 it is 25%.
Regarding B12, the % Inhibition is 35%.
Turning to B13, the % Inhibition was found to be 10%.
For B14, the % Inhibition was 8%.
Regarding B15, the % Inhibition turned out to be 17%.
As for WAVCHLL-NH2 (also: bridge at 4 via oxorhenium(V) N3S1 chelate, other end not in the chain) [metallopeptide 11-5], the % Inhibition was found to be 18%.
In the case of B16, the % Inhibition amounted to 2%.
Regarding B17, the % Inhibition came to 3%.
[dF]QWAVGHLC-NH2 (not fully specified (bridges); also: Re(V)=O chelate (N3S1) at Cys9) [metallopeptide 9-1]: the % Inhibition is 86%.
For WAVCH-NH2 (also: bridge at 4 via oxorhenium(V) N3S1 chelate, other end not in the chain) [metallopeptide 11-11], the % Inhibition is -1%.
In the case of AVCH-NH2 (also: bridge at 3 via oxorhenium(V) N3S1 chelate, other end not in the chain) [metallopeptide 11-12], the % Inhibition was found to be 5%.
B18: the % Inhibition came out at 5%.
Take B19: the % Inhibition was 75%.
For the molecule B20, the % Inhibition was 62%.

The target in a further experiment is human melanocortin-4 receptor (hMC4-R) (human) (UniProt P32245). The experiment is described as follows: 125I-NDP-α-MSH competition, hMC4-R membranes.
human melanocortin-4 receptor (hMC4-R) (human), sequence (P32245 whole entry): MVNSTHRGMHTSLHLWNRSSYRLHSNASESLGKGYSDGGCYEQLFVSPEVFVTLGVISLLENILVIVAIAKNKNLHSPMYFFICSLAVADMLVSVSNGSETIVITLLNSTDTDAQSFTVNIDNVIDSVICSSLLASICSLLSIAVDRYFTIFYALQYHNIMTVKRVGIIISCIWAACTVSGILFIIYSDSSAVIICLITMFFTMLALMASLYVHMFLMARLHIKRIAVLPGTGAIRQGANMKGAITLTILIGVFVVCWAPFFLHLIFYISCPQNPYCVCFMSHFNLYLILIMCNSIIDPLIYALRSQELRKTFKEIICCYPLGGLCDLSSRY
Consider B21, for which the % Inhibition at 1 µM came out at 2%.
As to B22, the % Inhibition at 1 µM was -1%.
